We go through five molecules from patent US5866114A, “Crystallization of M-CSFα” (Chiron Corporation, priority 1995, dated 1999).

For one series, the system named is NFS-60 cells. As to the kind of experiment: M-CSF dependent NFS-60 bioassay (MTT readout, compared to M-CSF standard). The class given is cell-based. How it is done:
Fractionated products were analyzed on reducing SDS-PAGE and stained with Coomassie, according to the method of Laemmli, Nature […] 227:680-685 (1970). Biological activity was determined using the M-CSF dependent NFS-60 bioassay (See Example 10 below). Antibody neutralization experiments were carried out by pre-incubating approximately 5,000 units of M-CSF dimer with varying dilutions of the neutralizing M-CSF 5H410 Mab (made to refolded E. coli CΔ150 M-CSFα dimer) prior to bioassay. (Halenbeck et al, Bio/Technology 7:710 (1989)
The purified mutein dimers were subjected to bioassay using NFS-60 cells which is an M-CSF dependent cell line which forms colonies in the presence of active M-CSF. Standards and purified mutein samples were serially diluted 1:2 in RPMI media (10% fetal bovine serum) in a 50 microliter volume in 96-well microtiter plates. 50 microliters NFS-60 cells (ATCC NO. CRL 1838), maintained in 4000U/ml M-CSF, washed 2×, and diluted to a concentration of 1×10^5 cell/ml, were added to each sample well. Plates were incubated at 37° C., 5% CO2 for 44 h. 5 mg/ml MTT dye was added to each sample and incubation continued for 4 h. 20% SDS was added to each sample. The plates were wrapped in foil and left overnight. The absorbance of each sample was read at 570 nm and compared to a standard of known M-CSF concentration.

The subject of series [1] is cell surface M-CSF receptor (NFS60 cell M-CSF receptors). As to the kind of experiment: Radioligand displacement of 125I-M-CSF from NFS-60 cell M-CSF receptors (NFS-60 receptor competition assay). The class given is binding. The note with it: for IC50: 4° C., 20 hours, 300,000 NFS-60 cells, read-out: IC50 (concentration required to inhibit 50% of labeled M-CSF binding to the cells); for M-CSF receptor-binding ability: compared to parental M-CSFα; for fold decrease in binding affinity: relative to M-CSFα NΔ3CΔ158. How it is done:
FIG. 7 illustrates the competitive binding of M-CSF and M-CSF muteins to NFS60 cell M-CSF receptors.
The purified heterodimer was submitted to the NFS60 cell based bioassay described in Example 8. The calculated specific activity was 2.9×10^6 U/mg which correlated to a 35-fold reduction as compared to the activity of the parental M-CSF heterodimer described in Example 10. The relative binding affinity to cell surface M-CSF receptor was measured by radioligand displacement in which the displacement of ^125 I-M-CSF from an M-CSF receptor by an M-CSF mutein was measured using methods well known in the art. In brief, the following were added in a final volume of 100 μl in each well of a 96-well cell culture plate: approximately 80,000 cpm of purified recombinant human M-CSF labeled with ^125 I (using Iodobeads as described by the manufacturer, Pierce, Rockford, Ill.), 300,000 NFS-60 cells that had been washed and then grown for 18 hours in growth medium minus the normal maintenance level of M-CSF, plus unlabeled M-CSF that had been serially diluted in the same medium. The plates were incubated at 4° C. for 20 hours and the cells were collected on glass-fiber filters. Maximum binding was measured in the absence of unlabeled M-CSF and non-specific binding was measured in the presence of 1000-fold greater concentration of unlabeled M-CSF (compared to labeled M-CSF). The concentration of M-CSF required to inhibit 50% of the labeled M-CSF binding to the cells (IC50) was used to determine differences in affinity. Results are expressed as percent displacement of radioactive M-CSF versus mutein concentration (FIG. 7).
(In a radioligand displacement assay an active substance lowers the binding of a labelled ligand.)

Series [2] in a line: Bioactivity after diethylpyrocarbonate (DEPC) modification of histidines. The note with it: 1:100 DEPC:histidine ratio.

Substitutions are numbered along the chain they refer to. Names may count otherwise.

B1: 158/221F heterodimer: one chain of short clone (amino acid 4 to 158) and one chain of long clone 221F (protein, UniProt P09603 33-554, looked up, variant C157S C159S)
Macrophage colony-stimulating …: EEVSEYCSHMIGSGHLQSLQRLIDSQMETSCQITFEFVDQEQLKDPVCYLKKAFLLVQDIMEDTMRFRDNTPNAIAIVQLQELSLRLKSCFTKDYEEHDKACVRTFYETPLQLLEKVKNVFNETKNLLDKDWNIFSKNCNNSFAECSSQDVVTKPDSNSLYPKAIPSSDPASVSPHQPLAPSMAPVAGLTWEDSEGTEGSSLLPGEQPLHTVDPGSAKQRPPRSTCQSFEPPETPVVKDSTIGGSPQPRPSVGAFNPGMEDILDSAMGTNWVPEEASGEASEIPVPQGTELSPSRPGGGSMQTEPARPSNFLSASSPLPASAKGQQPADVTGTALPRVGPVRPTGQDWNHTPQKTDHPSALLRDPPEPGSPRISSLRPQGLSNPSTLSAQPQLSRSHSSGSVLPLGELEGRRSTRDRRSPAEPEGGPASEGAARPLPRFNSVPLTDTGHERQSEGSFSPQLQESVFHLLVPSVILVLLAVGGLLFYRWRRRSHQEPQRADSPLEQPEGSPLTQDDRQVELPV
modifications: heterodimer short/long clone
notes: one chain of short clone (amino acid 4 to 158) and one chain of long clone 221F
On to B1, for which the specific activity with NFS-60 cells (calculated using the peak fraction of preparative Phenyl-HPLC) is reported as 8.0×10^7 units/mg. For the same molecule, the “biological activity of heterodimer compared to the two homodimers” value in the series on NFS-60 cells (refolded dimers, SE-HPLC (72 hr of refolding) or Phenyl-HPLC fractions) was “fully biologically active in vitro”.

B2: Q20A, V78K: double mutant of M-CSF, solvent accessible residues in central portion of helices A and C (protein, UniProt P09603 33-554, looked up, variant Q20A V78K)
Macrophage colony-stimulating …: B1 Macrophage colony-stimulating … with Q20A, V78K, S157C, S159C
For B2, in the series on NFS-60 cells (Example 11), the “fold lower specific biological activity than parental M-CSFα reference standard” value is reported as 8-10 fold and the specific biological activity is 1.4×10^7 U/mg. Moreover, in series [1], the IC50 was ~0.1 nM, the M-CSF receptor-binding ability entry was “decreased” and the “fold decrease in binding affinity” value was 5 fold.

B3: M-CSF: macrophage colony stimulating factor, form not specified, treated with DEPC to modify histidines (protein, UniProt P09603 33-554, looked up)
Macrophage colony-stimulating …: B1 Macrophage colony-stimulating … with S157C, S159C
modifications: DEPC-modified histidines
As to B3, the “bioactivity after DEPC modification of histidines” value in series [2] is “significantly reduced bioactivity”.

B4: H9A, H15A: M-CSF NΔ3CΔ158 with His 9 and His 15 mutated to Ala, refolded dimer (pTAF172-2) (protein, UniProt P09603 33-554, looked up, variant H9A H15A)
Macrophage colony-stimulating …: B1 Macrophage colony-stimulating … with H9A, H15A, S157C, S159C
modifications: residues 4-158, dimer
With B4, the “fold reduction in biological activity versus parental M-CSF NΔ3CΔ158” value with NFS-60 cells (Example 10) was ~10,000 fold. For the same molecule, the specific activity with NFS-60 cells (Example 10, purified refolded mutein dimers, same assay as parental reference) is on record as 7.6×10^3 U/mg. In addition, in series [1], the IC50 is ~1000 nM, the M-CSF receptor-binding ability entry was “greatly decreased” and the “fold decrease in binding affinity” value is on record as 50,000 fold.

B5: M-CSFαNΔ3CΔ158 H9A, H15A/M-CSFβNΔ3CΔ221C157S, C159S heterodimer: one subunit of M-CSFα NΔ3CΔ158 H9A, H15A and one subunit of M-CSFβ NΔ3CΔ221 C157S, C159S (protein, UniProt P09603 33-554, looked up, variant H9A H15A C157S C159S)
Macrophage colony-stimulating …: B1 Macrophage colony-stimulating … with H9A, H15A
modifications: heterodimer of truncated α and β forms
With B5, the “fold reduction in specific activity compared to parental M-CSF heterodimer” value with NFS-60 cells (Example 12) is recorded as 35 fold. In addition, the calculated specific activity with NFS-60 cells (Example 12, purified heterodimer) is on record as 2.9×10^6 U/mg. Besides, in series [1], the “fold increase of IC50 compared to M-CSFα NΔ3CΔ158” value was 30 fold and the IC50 was ~0.5 nM.
